From the nanobody polyreactivity screen of Harvey et al. (2022)

Experiment: yeast display, Sf9 membrane polyspecificity reagent, FACS + sequencing; frameworks hold sequencing errors
Method in brief: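 Nanobodies came from a synthetic yeast display library in Saccharomyces cerevisiae BJ5465, induced with galactose for 36–48 hours and stained for 1 hour at 4 °C with 10% biotinylated, detergent-solubilized Sf9 membrane reagent. Cells were enriched on streptavidin microbeads and then FACS-sorted, with low and high (top ~1%) gates set on anti-HA fluorescence for expression and streptavidin fluorescence for reagent binding. Each polyreactivity label reflects the gate a clone came from. Genes were amplified by colony PCR, sequenced by MiSeq 2 × 250 and filtered by CDR length.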

Sequence | polyreactivity (PSR sort gate)
QVQLVESGGGLVQAGGSLRLSCAASGSIFTHYAMGWYRQAPGKERELVAGITSSGGSTYADSVKGRFTISRDNAKNTVYLQMNSLKPEDTAVYYCNADNATYFVYEFNYWGQGTQVTVSS | low polyreactivity
QVQLVESGGGLFQAGGSLRLSCAPSGSIIIRNAMGWYRQAPGKEREWVAVISSSVGRTYYADSVKGRFTISRDTAKNTVYVQMNSLKPEVTAVYYCAARWYSGYGRFDYWGQVTQVTVSS | high polyreactivity
QVQLVESGGGLVQAGGSLRLSCAASGRTFFTYAMGWYRQAPGKERELVAAITGSGGSTSYADSVKGRFTISRDNAKNTVYLQMNSLKPEDTAVYYCAADWQELEYDYWGQGTQVNVSS | low polyreactivity
QVQLVESGGGLVQAGGSIRLSCAASGSIFLGYAMGSYRQATGKETELFAAISSGGTRTYYADSVKGRFTITRDNAKNTVYLQMNCLKPEDTAVYYCSARYIPIQYPSYRTWGGYSWGQGTQVTVSS | high polyreactivity
QVQLVESGGGLVQAGGSLRLSCAASGNTFTWYTMGWYRQAPGKERELVAVITSDGSTYYADSVKGRFTISRDNAKNTVYLQMNSLKPEDTAVYYCNALSADWYPEEDYWGQGTQVTVSS | low polyreactivity
QVQLVESCGCLVQAGGSLRLSCAASGIIFFPYAMGWYRQAPGKEREFVAAITSRRGSTYYADSVKGRFTISRDNPKNTVYLQMNILKPEDTAVYYCAAAWCAPSRFFSAFDYWGQGTQVTVSS | low polyreactivity
QLQLVESGGGLVQAGGSLRLSCAASGSTFHLYAMGCYREAPWNEREFVAAIRGRGGNTYADSVKGRFTISRDNAKNTVYLPMNSLKPEDTAVYYCAAAFYYYGDSDNWGQGTQVTVSS | low polyreactivity
QVQLVESGGGLVQAGGSLRLSCAASGSTFPYNAMGWYRQAPGKERELVAAITSSGRTNYADSVKGRFTITLDNAKNTVYLQMNSLKPEDTAVYYCAAGRWYAHRVDYWGQGSQVTVSS | low polyreactivity
QVQLVESGGGLVQAGGSLRLSCAASGRTFWFNAMGWYRQAPGKERELVASITLSGGSTYYADSVKGRFTISRDNAKITVYLQMNSLKPEDTAVYYCAADQTVHISSYDYWGQGTQVTVSS | low polyreactivity
QVQLVESGGGLVQAGGSLRLSCAASGFTFTAYAMGWYRQEPGKERELVAAITGTGGSTKYADSVKGRFTISRDNATNTVYLQMNSLKPEDTAVYYCAKRYRLRGRYDYWGQGTQVTVSS | high polyreactivity
QVQLVESGGGLVQAGGSLRLSCSASGSTFYRKTMGWYRQAPGKERELVAAISSGGGTKYADSVKGRFTISRDNAKNTVYLQMNSLKPEDTAVYYCAAVYYTLGYAYYPYIYYYWGQGTQVTVSS | high polyreactivity
QVQLVESGGGLVQAGGSLRLSCAASGRIFGTYAMGWYRQAPGKERELVAAITSSGSTNYADSVKGRFTISRDTAKKTVYLQMNSLKPEDTAVYYCAAVWVVFYYCYTVPVHYEYWGQGTQVTVSS | low polyreactivity
QVQLVESGGGLVQAGGSLRLSSAASGFTFSAYAMGWYRQAPGKEREMVATITSGGSTNYADSVKGRFTISRDNAKNTVYLQMNSLIPEDTAVYYCAADVGWLYYYPKYYYWGQGTQVTVSW | low polyreactivity
QVQLVESGGGLVQAGGSLRLICADSGSIFDGNVMGWYRQAPGKERDLVAAISGARTNYADSVKGRFTISRDNAKNTVYLQMNSLKAEDTAVYYCNVLPVGSEYDYWGQGTQVTVST | low polyreactivity
QVQLVESAGGLVQAGGSLRLSCAASGYTFPYYTMGWYRQAPGKERELVATITRRGDSTYYADSVKGRFTISRDNAKNTVYLQMNSLKPEDTAVYYCNTASYGRHQFRKSSKMDYWGQGTQVTVSS | high polyreactivity
QVQLVESGGGLVQAGGSLRLSCAASGSIFDPYAMGWYRQAPGKERELVAAITASGSSTYYADSVKGRFTISRDNAKNTVYLQMYSLKPEDTAVYYCAADRANWEYLLSWLGYDYWGQGTQVTVSS | low polyreactivity
QVQLVESGGGLVQARGSLRLSCAASGFIFRDNAMGWYRQAPGKERELVAAISKSGGRTYYADSVKGRFTISRDNAKNTVYLQMNSLKPEDTAVYYCAKASRYWSLYYWGQGTQVTVSS | high polyreactivity
QVQLVESGGGLVQPGGSLRLRCAASGFIFWIYAMGWYRQAPGKERELVAAISLSSGSTYYADSVKGRFTISRDNAKNTVYLEMNSLKTEDTAVYYCAARGYSHVASRLYYYWGQGTQVTVSS | high polyreactivity
QVQLVESGGGLVQAGGSLRLSCAASGFIFRRYAMGWYRQAPGKERELVAAISWSGGSTYYADSVKGRFTISRDNAKNTVYLQMNSLKPEDTAVYYCAKVPTSASPYDHWGQGTQVTVSS | high polyreactivity
QVQLVESGGGLVQAGGSLRLSCAASGSIFTFYAMGWYRPAPGKERELVAAITRSGGSTYYADSVKGRFTISRDNAKNTVYLQMNSLKPEDTAVYYCAKDPSSYVTYRYYYWGQGTEVTVSS | low polyreactivity
QVKLVESGGGLVQAGGSLRLRCAASGSIFRFYVMGWYRQAPGKERELVAAISSGGSTDYADSVKGRFTISRDNAKNTVYLQMYSLKPEDTAVYYCGARVRTVRNTYYSWGQGTQVTVSS | high polyreactivity

Sequence | polyreactivity (PSR sort gate)
QVHLVESGGVIVQAGGILRLSCAASGNIFTYYVMGWYRQAPGKERELVAAISRRGGSTYYADSVKGRFTISRDIAKNTVYLQMNSLKPEDTAVYYCAKKYPRDMDYWGQVTQVTVSS | high polyreactivity
QVQLVESGGGLVQAGGSLRLSCAASGLIFLYAMGWYRQAPGKERELVAAISNGGSTYYADSVKGRFTISRDNAKNTVYLQMNSLKPEDTAVYYCAAKGVRRRYRQDMYYWGQGTQVTVSS | high polyreactivity
QVQLLESGGGLVQAGGSLRLSFASSGSIFHPYAMGWYRQAPGKERELVAAITSGGSTYYADSVKGLFTISRDNAKNTDLLQMNSLNPEDNAVYYCAKDFDIYYSKYDYWGQGTQVTVSS | low polyreactivity
QVQLVESGGGLVQAGGSLRLSCAASGRIFRLYAMGWYRQAPGKERELVAAIRASGGNTYYADSVKGRFTISRDNAKNTVYLQMNSLKPEDSAVYYCAADYWSRYYTVPEWYNYWGQGTQVTVSS | high polyreactivity
QVQLVESGGGLVQAGGSLRLSCAATGSIFRYYAMGWYRQAPGKERELVAAISWSGGSTYYSDSVKGRFTISRDNAKNTVYLQMNSLKPEDTAVYYCNVKRYGGRSDYWGQGSQVTVSS | high polyreactivity
QVQLVESGGGLVQAGGSLRLSCAASGSTFYLNPMGWYRQAPGKERELVAVITSSGGSTNYADSVKGRFTISRDNAKITVYLQMNSLKPEDSAVYYCNRRPYPSYDYWGHGTQVTVSS | low polyreactivity
QVQLVESGGGLVQAGGSLRLSCPASGSTLWGYAMGWYRQAPGKERELVAAITSSGGITYYADSVKGRFTISRDNAKNTVYLQMNSLKPEDTAVYYCAVDYYVVGWTYLYYYRGQGTQVTVSS | low polyreactivity
QVQLVESGGGLVQAGGSLRLSCAASGSIFNDYAMGWYRQAPGKERELVATISSGGDTYYADSVKGRFTISRDNAKNTVYLQMNSLKPEDTAVYYCAALTGGYVVYTDSYDYWGQGTQVTVSS | low polyreactivity
QVQLVEAGGGLVQAGGSLRLSGAASGYTFGGNAMGWYRPAPGKERELVAGITWTGGTTYYADSVKGRFTISRDNAKNTVYLQMNSLKPEETAVYYCNASLDSQDGDYWGQGTQVTVSS | low polyreactivity
QVQLVESGGGLVQAGASLRLSCAASGSTFGGNAMGWSRQAPWKERELVAAINWTGGSTYADSVKGRFTISRDNAKNTVYLQMNRLKPEDTAVYYCAIRATWGSSTQYLQNQEYDYWGQGSQVTVSS | low polyreactivity
QVQLIESGGGLVQAGGSLRLSCAASGSTCDRNSMGWYRPAPGKERELVAAIDSDVNTYYADSVKGRFTISRDKAKNTVYLQMNSLTPEDTAVYYCAADYYSWPYDYWGQGTQVTVSS | low polyreactivity
QVQLVESGGGLVQAGGSLRLSCAASGSIFNQYAMGWYRQAPGKERELVARIRGSTGTTYYADSVKGRFTISRDNAKNTVYLQMNSLKPEDTAVYYCNAARYQGRSRFDYWGQGTQVTVSS | high polyreactivity
QVQLVESGGGLVQAGGSLRLSCAASGRIFSSYAMGWYRQAPGKERELVAAISSRGGSTYYADSVKGRFTISRDNAKNTVYLQMNSLKPEDTAVNYCAKGLTALGDYWGQCTQVTVSS | high polyreactivity
QFQLLESGGGLVQAAGSLRLSCAASGGIFRNYAMGWYRKAPGKERELVAAITSSGTSTYYADSVNGRFTISRDNAKNTVYLQMNSLKPEDTAVYYFAADVTARYDYWGQGTQVTVSS | high polyreactivity
QVQLVESGGGLVQAGGSLRLSCAASGRTFPRYAMGWYRQAPGKERELVAAISRGGGTTYADSVKGRFTISRDNAKNTVYLQMNSLKPEDTAVYYCATRSPYSYPNLYYWGQGTQVTVSS | high polyreactivity
QVQLVESGGGLVQAGGSLRLSCAASGSIFGVYAMGLYRQAPGKERELVASIDTSTGSTYYADSVKGRFTISRDNAKNTVYLQMNSLKPEDTAVYYCNADVGYYFTFEYWGQGTQVTVSS | high polyreactivity
QVQLVESGVGLVQAGGTLRISCAASGSTLPGYAMGWYRPAPGKERELVAAITSRGGTTYYADSVKGRFTISRDNAKNTVYLQMNSLKPEDTAVYYCAAEVYYRSRVYPYYYSYDYWGQGTQVTVSS | high polyreactivity
QDQLVESGGGLVQAGGSLRLSCAASGLIFDSYAMGWYRQAPGKERELVAAITYTGGSTYYADSVKGRFTISRDNAKNTVYLQMNSLKPEDTAVYYCAADSPGPWRYDYWGQGTQVTVSS | high polyreactivity
QVQLVESGGGLVQAGGSLRLSCAASGLIFQTYAMGWSRQAPGKERELVATISGSTGGTYYADSVKGRFTISRDNAKNTVYLQMNSLKPEDTAVYYCNASVFQSEYDYWGQGTQVTVSS | low polyreactivity
QVQLVESGGGLVQAGGSLRLSCAASGRTFRYYTMGWYRQAPGKERQFVAAISSTGGTYYADSVKGRFTISRDNAKNTVYLQMNSLKPADTAVYYCAATFIQVVVNVQLYDYDYWGQGTQVTVSS | low polyreactivity
